Experimental data as given in paper PMC4411124.

Experiments:
[1] = molecular target: T1, SoxR (Stenotrophomonas maltophilia K279a) (UniProt B2FRT7); test: EMSA
T1 sequence: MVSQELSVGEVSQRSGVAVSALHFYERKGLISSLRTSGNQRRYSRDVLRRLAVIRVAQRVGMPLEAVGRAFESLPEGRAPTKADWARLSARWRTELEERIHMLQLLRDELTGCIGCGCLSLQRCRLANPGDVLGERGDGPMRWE

[2] = molecular target: T1, SoxR (Stenotrophomonas maltophilia K279a); test: competition

Sequence	binding [1]	binding [2]
GCGGATCACCGCCAGCCGGCGCAGCACGTCGCGGCTGTAGCGGCGCTGGTTACCCGAAGTGCGCAGGCTGCTGATCAGCCCCTTGCGCTCGTAGAAGTGCAGCGCGGAAACCGCCACGCCACTGCGCTGGGAGACTTCGCCAACGCTCAGTTCCTGGGACACCATTGCTTGAAAGACCAGTACTGTGAGGTGTCATGCTGCTATCTTCGCCGTCGGTTGACAAGCGCGGCCCGCATCTGACCCGTATGACCCCGACCCTC (double strand) [mfsA-soxR promoter fragment, 258 bp, mutated SoxR box]	no binding	
GAGGGTCGGGGTCATACGGGTCAGATGCGGGCCGCGCTTGTCAACCGACGGCGAAGATAGCAGCATGACACCTCAACTGCAGTTGAGGTCAAGCAATGGTGTCCCAGGAACTGAGCGTTGGCGAAGTCTCCCAGCGCAGTGGCGTGGCGGTTTCCGCGCTGCACTTCTACGAGCGCAAGGGGCTGATCAGCAGCCTGCGCACTTCGGGTAACCAGCGCCGCTACAGCCGCGACGTGCTGCGCCGGCTGGCGGTGATCCGC (double strand) [mfsA-soxR promoter fragment, 258 bp, wild type]	binds	binds
